# Test results from article doi:10.1101/2022.07.14.500063.
# How the values were obtained:
# [1] = biological target: Delta RBD+L455S (SARS-CoV-2) (UniProt P0DTC2)
# [2] = biological target: Delta+Y453F Spike on pseudotyped lentivirus (SARS-CoV-2) (UniProt P0DTC2)
# [3] = biological target: Delta+L455F Spike on pseudotyped lentivirus (SARS-CoV-2) (UniProt P0DTC2)
# [4] = biological target: Delta RBD+E406D (SARS-CoV-2) (UniProt P0DTC2)
# [5] = biological target: Delta RBD+E406Q (SARS-CoV-2) (UniProt P0DTC2)
# [6] = biological target: Delta RBD+L455S (SARS-CoV-2) (UniProt P0DTC2); remark: listed apart in the source
substance,measurement,setting,value
casirivimab (REGN10933) (antibody),fold reduction in pseudoviral neutralization titre against wild-type Delta,[1],155 fold
same,fold reduction in pseudoviral neutralization titre against wild-type Delta,[2],16 fold
same,fold reduction in pseudoviral neutralization titre against wild-type Delta,[3],17 fold
same,fold reduction in pseudoviral neutralisation titre,[4],2 fold
same,fold reduction in pseudoviral neutralisation titre,[5],12 fold
same,fold reduction in pseudoviral neutralisation titre,[6],65 fold
